Assays:
[1] = biological target: T1, human FcγRIIb receptor protein (R&D Systems) (human, UniProt P31994 46-217); experiment: Biacore SPR, Kd(native IgG1)/Kd(variant)
T1 construct: Bought protein injected over captured antibody in Biacore; also called CD32b
T1 sequence (looked up): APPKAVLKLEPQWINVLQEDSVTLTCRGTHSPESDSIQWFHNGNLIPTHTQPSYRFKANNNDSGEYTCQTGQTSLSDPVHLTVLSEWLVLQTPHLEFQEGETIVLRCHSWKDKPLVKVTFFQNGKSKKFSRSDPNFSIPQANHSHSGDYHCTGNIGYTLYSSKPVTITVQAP

[2] = biological target: T2, cynoFcγRIIIa (Macaca fascicularis, UniProt Q8SPW2); experiment: SPR
T2 construct: extracellular region, C-terminal His- and GST-tag; also called cynomolgus monkey FcγRIIIa

[3] = biological target: T3, mFcγRIIb (Mus musculus, UniProt P08101); experiment: SPR
T3 construct: extracellular region, C-terminal His- and GST-tag; also called mouse FcγRII
T3 sequence (receptor extracellular region, looked up): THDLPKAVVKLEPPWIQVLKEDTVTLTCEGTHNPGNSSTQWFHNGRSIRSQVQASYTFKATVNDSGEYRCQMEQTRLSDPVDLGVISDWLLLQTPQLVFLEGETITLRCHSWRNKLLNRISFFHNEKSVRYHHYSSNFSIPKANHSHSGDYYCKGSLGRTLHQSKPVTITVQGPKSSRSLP

[4] = biological target: T4, cynoFcγRIIb (Macaca fascicularis, UniProt A0A140HDP4); experiment: SPR
T4 construct: extracellular region, C-terminal His- and GST-tag; also called cynomolgus monkey FcγRIIb
T4 sequence (receptor extracellular region): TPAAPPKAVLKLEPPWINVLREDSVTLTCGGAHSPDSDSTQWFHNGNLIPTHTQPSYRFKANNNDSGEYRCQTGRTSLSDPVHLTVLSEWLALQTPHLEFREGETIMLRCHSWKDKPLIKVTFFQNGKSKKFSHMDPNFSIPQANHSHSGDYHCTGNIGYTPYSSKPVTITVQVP

[5] = biological target: T5, mFcγRIV; experiment: SPR
T5 construct: also called mouse FcγRIV; not shown: C-terminal His and GST tags (named only on our card)
T5 chain: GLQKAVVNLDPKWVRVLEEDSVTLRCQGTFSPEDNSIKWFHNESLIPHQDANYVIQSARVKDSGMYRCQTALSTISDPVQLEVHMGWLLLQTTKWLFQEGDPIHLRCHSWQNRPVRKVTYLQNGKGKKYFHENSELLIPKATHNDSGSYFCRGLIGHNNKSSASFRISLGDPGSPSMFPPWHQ

[6] = biological target: T6, human FcγRIIa (131R), His- and GST-tagged (human, UniProt P12318 34-217); experiment: SPR
T6 construct: Expressed in HEK293T cells, purified by nickel chromatography; also called R131 FcγRIIa; not shown: 6xHis and GST tags of the pTT5 vector
T6 sequence (looked up): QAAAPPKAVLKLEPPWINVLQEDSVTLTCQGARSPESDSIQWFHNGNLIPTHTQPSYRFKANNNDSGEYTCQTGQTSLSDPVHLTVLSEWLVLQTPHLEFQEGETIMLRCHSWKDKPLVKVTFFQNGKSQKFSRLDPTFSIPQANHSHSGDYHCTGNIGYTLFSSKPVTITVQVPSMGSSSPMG

[7] = biological target: T7, human FcγRIIIa (158V), His- and GST-tagged (human, UniProt P08637 17-208); experiment: SPR
T7 construct: also called V158 FcγRIIIa; VIIIa; not shown: 6xHis and GST tags of the pTT5 vector

[8] = biological target: T8, human FcγRI receptor protein (R&D Systems) (human, UniProt P12314 16-288); experiment: SPR
T8 construct: also called soluble FcγRI; solFcγRI

[9] = biological target: T9, human FcγRIIa (131H), His- and GST-tagged (human, UniProt P12318 34-217); experiment: SPR
T9 construct: also called H131 FcγRIIa; HIIa; not shown: 6xHis and GST tags of the pTT5 vector
T9 sequence (looked up): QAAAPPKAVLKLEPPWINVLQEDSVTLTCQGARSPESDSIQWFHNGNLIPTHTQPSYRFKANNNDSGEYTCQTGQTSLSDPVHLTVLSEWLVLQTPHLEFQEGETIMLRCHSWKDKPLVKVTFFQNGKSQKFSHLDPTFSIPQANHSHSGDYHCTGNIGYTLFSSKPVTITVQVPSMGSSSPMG
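Throughout, for Fold vs WT IgG1 (off-rate): fold improvement over WT IgG1 so higher means slower dissociation than WT.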

T8 sequence (P12314 16-288 limits assumed): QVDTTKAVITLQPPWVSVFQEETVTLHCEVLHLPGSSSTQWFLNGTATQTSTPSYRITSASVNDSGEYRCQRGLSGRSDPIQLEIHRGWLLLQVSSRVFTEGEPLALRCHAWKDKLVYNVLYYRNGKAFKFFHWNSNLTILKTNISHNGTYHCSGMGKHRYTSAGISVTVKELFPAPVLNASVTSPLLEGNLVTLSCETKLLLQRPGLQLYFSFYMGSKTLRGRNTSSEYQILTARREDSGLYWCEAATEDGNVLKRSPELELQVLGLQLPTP
T7 sequence (P08637 17-208 F176V): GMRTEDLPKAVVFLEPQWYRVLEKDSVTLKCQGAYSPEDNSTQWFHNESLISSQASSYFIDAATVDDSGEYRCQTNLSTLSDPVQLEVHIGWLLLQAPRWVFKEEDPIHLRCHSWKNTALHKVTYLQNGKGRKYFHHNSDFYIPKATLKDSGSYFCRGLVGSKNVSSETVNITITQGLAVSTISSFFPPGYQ
T2 sequence (Q8SPW2 17-208): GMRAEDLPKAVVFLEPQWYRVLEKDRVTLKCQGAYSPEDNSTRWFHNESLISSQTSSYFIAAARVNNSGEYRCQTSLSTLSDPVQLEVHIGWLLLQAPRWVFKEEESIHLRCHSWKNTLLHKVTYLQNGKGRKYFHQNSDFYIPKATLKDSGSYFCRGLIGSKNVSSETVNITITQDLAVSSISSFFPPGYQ

- fold affinity relative to native IgG1 [1]: 20.4 fold
- Fold vs WT IgG1 (off-rate) [2]: 0.515 fold
- Fold vs WT IgG1 (off-rate) [3]: 1.44 fold
- Fold vs WT IgG1 (off-rate) [4]: 1.09 fold
- Fold vs WT IgG1 (off-rate) [5]: 0.77 fold
- Fold vs WT IgG1 [6]: 29.5 fold
- Kd [6]: 29.1 nM
- Fold vs WT IgG1 [7]: 0.381 fold
- Kd [7]: 503 nM
- Fold vs WT IgG1 [8]: 2.81 fold
- Kd [8]: 0.117 nM
- Fold vs WT IgG1 [9]: 0.753 fold
- Kd [9]: 859 nM
B1: anti-CD19 antibody HuAM4G7 IgG1 S267E (antibody)
heavy: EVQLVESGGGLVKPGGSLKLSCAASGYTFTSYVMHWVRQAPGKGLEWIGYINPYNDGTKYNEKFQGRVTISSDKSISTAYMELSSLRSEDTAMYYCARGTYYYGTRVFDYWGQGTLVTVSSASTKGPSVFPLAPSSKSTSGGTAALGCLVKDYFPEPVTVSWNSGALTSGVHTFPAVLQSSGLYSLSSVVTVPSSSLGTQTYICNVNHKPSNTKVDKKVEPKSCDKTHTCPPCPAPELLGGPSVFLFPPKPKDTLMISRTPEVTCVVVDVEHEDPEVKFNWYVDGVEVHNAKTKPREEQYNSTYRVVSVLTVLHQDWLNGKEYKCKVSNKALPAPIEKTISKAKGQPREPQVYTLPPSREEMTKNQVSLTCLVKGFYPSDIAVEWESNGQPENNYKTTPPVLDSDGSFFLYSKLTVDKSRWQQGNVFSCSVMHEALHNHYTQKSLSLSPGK
light: DIVMTQSPATLSLSPGERATLSCRSSKSLQNVNGNTYLYWFQQKPGQSPQLLIYRMSNLNSGVPDRFSGSGSGTEFTLTISSLEPEDFAVYYCMQHLEYPITFGAGTKLEIKRTVAAPSVFIFPPSDEQLKSGTASVVCLLNNFYPREAKVQWKVDNALQSGNSQESVTEQDSKDSTYSLSSTLTLSKADYEKHKVYACEVTHQGLSSPVTKSFNRGEC
notes: Positions in EU numbering; copies: 2 + 2
